Measurements from publication PMC4764553, “Human cytomegalovirus IE1 protein alters the higher-order chromatin structure by targeting the acidic patch of the nucleosome” (eLife, 2016).
Like-named read-outs stand apart in the source and are kept apart here.

Legend:
Assay in all cases: ITC
[1] = system: IE1-CTD (chromatin-tethering domain peptide);human histone octamer WT (human cytomegalovirus;Homo sapiens)
[2] = system: IE1 full length;human histone octamer WT (human cytomegalovirus (Towne);Homo sapiens)
[3] = system: IE1-CTD (chromatin-tethering domain peptide);human histone octamer WT (human cytomegalovirus;Homo sapiens); remark: listed apart in the source

Substance: 147-bp Widom 601 (human NCP)
- Kd [1]: 400 nM
- Kd [2]: 11300 nM
- Kd [3]: 2250 nM
